Measurements reported in US9260500B2, “Peptide and use thereof” (Takeda Pharmaceutical Company Limited, priority 2009, dated 2016).
Starred links: 1 amine or outer side, 2 acyl side, 3 side chain; linkers in the order of their positions; H or OH if unused. Non-standard residues stand in square brackets, D forms with d. No end group written: not given here. *: point of attachment. 4‑Guanidinomethylbenzoyl = N=C(N)NCc1ccc(C(=O)*)cc1; tBuAla = CC(C)(C)C[C@H](N)C(=O)O; 4Pal = N[C@@H](Cc1ccncc1)C(=O)O; Aad = N[C@@H](CCCC(=O)O)C(=O)O; Cha = N[C@@H](CC1CCCCC1)C(=O)O; Isonicotinoyl = O=C(c1ccncc1)*; Suc = O=C(CCC(=O)[*:2])[*:1]; 4Amb = NCc1ccc(C(=O)O)cc1; Iva = CC[C@](C)(N)C(=O)O; Nle = CCCC[C@H](N)C(=O)O; Aib = CC(C)(N)C(=O)O; Ahx = NCCCCCC(=O)O

Columns and labels:
[1] = molecular target: T1, human Y2 receptor (Homo sapiens, UniProt P49146); test: Receptor Binding Assay (RBA) for Human Y2, [125I]-PYY displacement on hY2R/CHO membrane fraction; details: IC50 of test compound/IC50 of PYY(3-36) (PYY(3-36) taken as 1)
T1 construct: expressed in transfected cells; membrane fraction
T1 sequence (P49146 1-381): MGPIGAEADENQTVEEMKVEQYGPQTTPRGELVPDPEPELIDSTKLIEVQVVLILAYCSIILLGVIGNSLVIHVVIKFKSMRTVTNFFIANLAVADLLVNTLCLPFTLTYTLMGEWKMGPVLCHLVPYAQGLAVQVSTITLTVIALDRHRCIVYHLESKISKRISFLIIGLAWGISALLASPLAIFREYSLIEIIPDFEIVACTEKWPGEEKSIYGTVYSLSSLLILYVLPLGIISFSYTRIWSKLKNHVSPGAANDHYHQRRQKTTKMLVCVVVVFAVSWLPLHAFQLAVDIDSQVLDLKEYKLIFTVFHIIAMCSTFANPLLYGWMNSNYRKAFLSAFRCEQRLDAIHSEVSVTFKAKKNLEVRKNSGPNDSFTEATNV
Protocol: (1) Construction of Expression Plasmid for the Human Y2 Receptor (Y2R) Gene
PCR was performed by a reaction using Pfu DNA polymerase ([…]), with a human brain cDNA (PT3158-1, Clontech) as the template, wherein synthetic DNAs with the following sequences were used as a combination of 5′ and 3′ primers, whereby the human Y2R gene was cloned. Primer 1 was prepared on the basis of base sequence information on the human Y2R gene (Refseq ID No. NM_000910) with the addition of Kozak's consensus sequence. Primer 2 was prepared on the basis of base sequence information on the human Y2R gene.
The PCR product obtained was cloned into pCR4-Blunt-TOPO (Invitrogen), and the plasmid was extracted according to a conventional method (QIAwell 8 Plus, QIAGEN). After confirming the base sequence, the human Y2R gene was re-cloned by a PCR reaction with the plasmid DNA as the template, using Primer 1 as the 5′ primer and Primer 2 as the 3′ primer. The PCR was performed using the Pyrobest DNA polymerase (TaKaRa). The PCR product obtained was re-cloned into pCR-Blunt II-TOPO (Invitrogen), and the plasmid was extracted according to a conventional method (QIAGEN). An Xho I restriction enzyme digestion site and an Spe I restriction enzyme digestion site are present in the cloning site of the pCR-Blunt II-TOPO; a plasmid clone was selected wherein the human Y2R gene was inserted in the orientation such that the Xho I restriction enzyme digestion site was positioned upstream of Primer 1, and the Spe I restriction enzyme digestion site was positioned downstream of Primer 2. After confirming the base sequence, the plasmid clone was digested with the restriction enzymes Xho I and Spe I to yield a DNA fragment. The DNA fragment was inserted into the animal cell expression vector pAKKO-111H (the same plasmid as pAKKO-1.111H described in Biochem. Biophys. Acta, Hinuma, S. et al., 1219, 251-259 (1994)), which was enzymatically digested with Sal I and Spe I, to yield the expression plasmid pAK-hY2R (pAKKO-111H/Y2R).
(2) Test Method: Receptor Binding Assay (RBA) for Human Y2
A human NPY2R (hY2R) stable expression cell line was acquired by transducing the animal cell expression plasmid pAK-hY2R into CHO/dhfr-cells using the CellPhect Transfection kit (Amersham Pharmacia Biotech Co.). First, 240 μl of Buffer A (attached to the CellPhect Transfection kit) was added to 9.6 μg of the plasmid DNA dissolved in 240 μl of distilled water; this mixture was stirred and allowed to stand for 10 minutes, after which 480 μL of Buffer B (attached to the CellPhect Transfection kit) was added, and the mixture was vigorously stirred to form a liposome containing the DNA. 2.5×10^5 or 4×10^5 CHO/dhfr− cells (obtained from ATCC) were seeded to 60 mm petri dishes, and cultured in Ham's F-12 medium (Sigma Co.) containing 10% fetal bovine serum (BioWest Co.) at 37° C. in 5% gaseous carbon dioxide for 1 day, after which 480 μL of the liposome was added drop by drop on to the cells in each petri dish. This was cultured at 37° C. in 5% gaseous carbon dioxide for 6 hours, after which the cells were twice washed with serum-free Ham's F-12 medium; 3 mL of 15% glycerol was added onto the cells in the petri dish and treated for 2 minutes. This was again washed 3 times with serum-free Ham's F-12 medium, after which the cells were cultured in Ham's F-12 medium containing 10% fetal bovine serum at 37° C. in 5% gaseous carbon dioxide. The cells were dispersed by trypsinization and recovered from the petri dishes, and seeded to a 6-well plate at 2.5×10^4 or 4×10^4 cells per well; cultivation was begun in Dulbecco's modified Eagle medium <DMEM> medium (Sigma Co.) containing dialyzed 10% fetal bovine serum (Invitrogen Co.) at 37° C. in 5% gaseous carbon dioxide. Since plasmid-introduced transformant CHO cells grow in the medium, whereas cells without plasmid introduction die gradually, about 20 colonies of transformed CHO cell that had grown 9-13 days after the start of the cultivation were isolated. […]

[2] = molecular target: T1, human Y2 receptor; test: Human Y2 Receptor G Protein Binding Assay (GBA), [35S]GTPγS; assay type: biochemical; details: EC50 of test compound/EC50 of PYY(3-36) (PYY3-36 taken as 1), hY2R/CHO membrane fraction
Protocol: (3) Test Method: Human Y2 Receptor G Protein Binding Assay (GBA)
The agonist activity of the compound of the present invention against the human Y2 receptor was measured by the method described below.
2 μL of the test compound, serially diluted with DMSO from 100 μM to 1 nM, was dispensed to a 96-well plate, and 100 μL of the membrane fraction, previously diluted with an assay buffer (50 mM Tris, 5 mM MgCl2, 150 mM NaCl, […], 0.03% NaN3, 0.1% BSA, pH 7.4) to 1 μg protein/mL, was dispensed thereto, subsequently, 100 μL of a [^35S]GTPγS (NEG030H, PerkinElmer, previously diluted with the assay buffer to 1 nM) was added, and they were mixed by pipetting. After incubation at room temperature for 120 minutes, the mixture was filtered through the cell harvester FilterMate (PerkinElmer) using the UniFilter-96 GF/C (PerkinElmer), and the filter was washed 3 times with a filtering buffer (50 mM Tris, 5 mM MgCl2, 150 mM NaCl, 0.03% NaN3, 0.05% CHAPS, pH 7.4). Thereafter, UniFilter-96 GF/C was dried in a mechanical drier for 1 hour, 15 μl of the liquid scintillator MicroScint O (PerkinElmer) was added to each well, and a measurement was taken using TopCount (PerkinElmer). The data obtained were analyzed using Prism to calculate the EC50 value. The agonist activity of the test compound was expressed as a ratio to the EC50 value of PYY3-36 taken as 1 (EC50 Ratio: EC50 of test compound/EC50 of PYY(3-36)). The results are shown in the GBA column in Table 5 (Table 5-1-Table 5-10).

Substance | RBA IC50 Ratio [1] | GBA EC50 Ratio [2]
4-Aminomethylbenzoyl-[Ala26, Ile28, VAl31]-PYY(25-36) ([4Amb]RAYINLVTRQRY-NH2; N-terminus assumed; SMILES CC[C@H](C)[C@H](NC(=O)[C@H](Cc1ccc(O)cc1)NC(=O)[C@H](C)NC(=O)[C@H](CCCNC(=N)N)NC(=O)c1ccc(CN)cc1)C(=O)N[C@@H](CC(N)=O)C(=O)N[C@@H](CC(C)C)C(=O)N[C@H](C(=O)N[C@H](C(=O)N[C@@H](CCCNC(=N)N)C(=O)N[C@@H](CCC(N)=O)C(=O)N[C@@H](CCCNC(=N)N)C(=O)N[C@@H](Cc1ccc(O)cc1)C(N)=O)[C@@H](C)O)C(C)C) [compound No. 39] | 7.2 | 4.0
4-Guanidinomethylbenzoyl-[Iva25, Cha27,36, Aib28,31, Lys30]-PYY(25-36) ({4‑Guanidinomethylbenzoyl}-[Iva]H[Cha][Aib]NK[Aib]TRQR[Cha]-NH2; SMILES CC[C@](C)(NC(=O)c1ccc(CNC(=N)N)cc1)C(=O)N[C@@H](Cc1c[nH]cn1)C(=O)N[C@@H](CC1CCCCC1)C(=O)NC(C)(C)C(=O)N[C@@H](CC(N)=O)C(=O)N[C@@H](CCCCN)C(=O)NC(C)(C)C(=O)N[C@H](C(=O)N[C@@H](CCCNC(=N)N)C(=O)N[C@@H](CCC(N)=O)C(=O)N[C@@H](CCCNC(=N)N)C(=O)N[C@@H](CC1CCCCC1)C(N)=O)[C@@H](C)O) [compound No. 252] | 6.3 | 2.8
4-Guanidinomethylbenzoyl-[Nle25, Cha27,28,31,36, Arg30]-PYY(25-36) ({4‑Guanidinomethylbenzoyl}-[Nle]H[Cha][Cha]NR[Cha]TRQR[Cha]-NH2; SMILES CCCC[C@H](NC(=O)c1ccc(CNC(=N)N)cc1)C(=O)N[C@@H](Cc1c[nH]cn1)C(=O)N[C@@H](CC1CCCCC1)C(=O)N[C@@H](CC1CCCCC1)C(=O)N[C@@H](CC(N)=O)C(=O)N[C@@H](CCCNC(=N)N)C(=O)N[C@@H](CC1CCCCC1)C(=O)N[C@H](C(=O)N[C@@H](CCCNC(=N)N)C(=O)N[C@@H](CCC(N)=O)C(=O)N[C@@H](CCCNC(=N)N)C(=O)N[C@@H](CC1CCCCC1)C(N)=O)[C@@H](C)O) [compound No. 76] | 7.2 | 4.5

Continued, values first:

RBA IC50 Ratio [1] | GBA EC50 Ratio [2] | Substance
1.7 | 1.2 | 3-Carboxypropionyl-[Acp22, D-Pro24, Cha27,36, Leu(Me)28, Lys30, Aib31]-PYY(22-36) (Suc-[Ahx]S[dP]RH[Cha][tBuAla]NK[Aib]TRQR[Cha]-NH2; SMILES C[C@@H](O)[C@H](NC(=O)C(C)(C)NC(=O)[C@H](CCCCN)NC(=O)[C@H](CC(N)=O)NC(=O)[C@H](CC(C)(C)C)NC(=O)[C@H](CC1CCCCC1)NC(=O)[C@H](Cc1c[nH]cn1)NC(=O)[C@H](CCCNC(=N)N)NC(=O)[C@H]1CCCN1C(=O)[C@H](CO)NC(=O)CCCCCNC(=O)CCC(=O)O)C(=O)N[C@@H](CCCNC(=N)N)C(=O)N[C@@H](CCC(N)=O)C(=O)N[C@@H](CCCNC(=N)N)C(=O)N[C@@H](CC1CCCCC1)C(N)=O) [compound No. 185]
8.1 | 5.7 | 4-Pyridinecarbonyl-[Glu23, D-Pro24, Nle25, Pya(4)26, Cha27,36, Aib28,31, Lys30]-PYY(23-36) (Isonicotinoyl-E[dP][Nle][4Pal][Cha][Aib]NK[Aib]TRQR[Cha]-NH2; SMILES CCCC[C@H](NC(=O)[C@H]1CCCN1C(=O)[C@H](CCC(=O)O)NC(=O)c1ccncc1)C(=O)N[C@@H](Cc1ccncc1)C(=O)N[C@@H](CC1CCCCC1)C(=O)NC(C)(C)C(=O)N[C@@H](CC(N)=O)C(=O)N[C@@H](CCCCN)C(=O)NC(C)(C)C(=O)N[C@H](C(=O)N[C@@H](CCCNC(=N)N)C(=O)N[C@@H](CCC(N)=O)C(=O)N[C@@H](CCCNC(=N)N)C(=O)N[C@@H](CC1CCCCC1)C(N)=O)[C@@H](C)O) [compound No. 228]
1.9 | 1.8 | 4-Pyridinecarbonyl-[Glu23, D-Pro24, Pya(4)26, Cha27,36, Aib28,31, Lys30]-PYY(23-36) (Isonicotinoyl-E[dP]R[4Pal][Cha][Aib]NK[Aib]TRQR[Cha]-NH2; SMILES C[C@@H](O)[C@H](NC(=O)C(C)(C)NC(=O)[C@H](CCCCN)NC(=O)[C@H](CC(N)=O)NC(=O)C(C)(C)NC(=O)[C@H](CC1CCCCC1)NC(=O)[C@H](Cc1ccncc1)NC(=O)[C@H](CCCNC(=N)N)NC(=O)[C@H]1CCCN1C(=O)[C@H](CCC(=O)O)NC(=O)c1ccncc1)C(=O)N[C@@H](CCCNC(=N)N)C(=O)N[C@@H](CCC(N)=O)C(=O)N[C@@H](CCCNC(=N)N)C(=O)N[C@@H](CC1CCCCC1)C(N)=O) [compound No. 215]
2.8 | 1.2 | Ac-[Aad23, D-Pro24, Cha27,28,36, Aib31]-PYY(23-36) (Ac-[Aad][dP]RH[Cha][Cha]NL[Aib]TRQR[Cha]-NH2; SMILES CC(=O)N[C@@H](CCCC(=O)O)C(=O)N1CCC[C@@H]1C(=O)N[C@@H](CCCNC(=N)N)C(=O)N[C@@H](Cc1c[nH]cn1)C(=O)N[C@@H](CC1CCCCC1)C(=O)N[C@@H](CC1CCCCC1)C(=O)N[C@@H](CC(N)=O)C(=O)N[C@@H](CC(C)C)C(=O)NC(C)(C)C(=O)N[C@H](C(=O)N[C@@H](CCCNC(=N)N)C(=O)N[C@@H](CCC(N)=O)C(=O)N[C@@H](CCCNC(=N)N)C(=O)N[C@@H](CC1CCCCC1)C(N)=O)[C@@H](C)O) [compound No. 159]
